As a reminder, the Km is the concentration of substrate that gives half-maximal velocity.

This passage reports Km results from ChEMBL document CHEMBL2074115, “Anthracyclines modulate multidrug resistance protein (MRP) mediated organic anion transport” (Biochim Biophys Acta, 1997).

Substrate in data set [1]: N[C@@H](CCC(=O)N[C@@H](CSSC[C@H](NC(=O)CC[C@H](N)C(=O)O)C(=O)NCC(=O)O)C(=O)NCC(=O)O)C(=O)O
The experiment in a line: (§1) TP_TRANSPORTER: uptake in membrane vesicles from GLC4/ADR cells. Type of data set: functional, cell membranes, GLC-4/ADR, Membrane vesicle.

Substrate in data set [2]: N[C@@H](CCC(=O)N[C@H](CSc1ccc([N+](=O)[O-])cc1[N+](=O)[O-])C(=O)NCC(=O)O)C(=O)O
The data set is described as §1. The class given is functional, cell membranes, GLC-4/ADR, Membrane vesicle.

B1: Multidrug resistance-associated protein 1 (Homo sapiens) (protein)
chain: MALRGFCSADGSDPLWDWNVTWNTSNPDFTKCFQNTVLVWVPCFYLWACFPFYFLYLSRHDRGYIQMTPLNKTKTALGFLLWIVCWADLFYSFWERSRGIFLAPVFLVSPTLLGITMLLATFLIQLERRKGVQSSGIMLTFWLVALVCALAILRSKIMTALKEDAQVDLFRDITFYVYFSLLLIQLVLSCFSDRSPLFSETIHDPNPCPESSASFLSRITFWWITGLIVRGYRQPLEGSDLWSLNKEDTSEQVVPVLVKNWKKECAKTRKQPVKVVYSSKDPAQPKESSKVDANEEVEALIVKSPQKEWNPSLFKVLYKTFGPYFLMSFFFKAIHDLMMFSGPQILKLLIKFVNDTKAPDWQGYFYTVLLFVTACLQTLVLHQYFHICFVSGMRIKTAVIGAVYRKALVITNSARKSSTVGEIVNLMSVDAQRFMDLATYINMIWSAPLQVILALYLLWLNLGPSVLAGVAVMVLMVPVNAVMAMKTKTYQVAHMKSKDNRIKLMNEILNGIKVLKLYAWELAFKDKVLAIRQEELKVLKKSAYLSAVGTFTWVCTPFLVALCTFAVYVTIDENNILDAQTAFVSLALFNILRFPLNILPMVISSIVQASVSLKRLRIFLSHEELEPDSIERRPVKDGGGTNSITVRNATFTWARSDPPTLNGITFSIPEGALVAVVGQVGCGKSSLLSALLAEMDKVEGHVAIKGSVAYVPQQAWIQNDSLRENILFGCQLEEPYYRSVIQACALLPDLEILPSGDRTEIGEKGVNLSGGQKQRVSLARAVYSNADIYLFDDPLSAVDAHVGKHIFENVIGPKGMLKNKTRILVTHSMSYLPQVDVIIVMSGGKISEMGSYQELLARDGAFAEFLRTYASTEQEQDAEENGVTGVSGPGKEAKQMENGMLVTDSAGKQLQRQLSSSSSYSGDISRHHNSTAELQKAEAKKEETWKLMEADKAQTGQVKLSVYWDYMKAIGLFISFLSIFLFMCNHVSALASNYWLSLWTDDPIVNGTQEHTKVRLSVYGALGISQGIAVFGYSMAVSIGGILASRCLHVDLLHSILRSPMSFFERTPSGNLVNRFSKELDTVDSMIPEVIKMFMGSLFNVIGACIVILLATPIAAIIIPPLGLIYFFVQRFYVASSRQLKRLESVSRSPVYSHFNETLLGVSVIRAFEEQERFIHQSDLKVDENQKAYYPSIVANRWLAVRLECVGNCIVLFAALFAVISRHSLSAGLVGLSVSYSLQVTTYLNWLVRMSSEMETNIVAVERLKEYSETEKEAPWQIQETAPPSSWPQVGRVEFRNYCLRYREDLDFVLRHINVTINGGEKVGIVGRTGAGKSSLTLGLFRINESAEGEIIIDGINIAKIGLHDLRFKITIIPQDPVLFSGSLRMNLDPFSQYSDEEVWTSLELAHLKDFVSALPDKLDHECAEGGENLSVGQRQLVCLARALLRKTKILVLDEATAAVDLETDDLIQSTIRTQFEDCTVLTIAHRLNTIMDYTRVIVLDKGEIQEYGAPSDLLQQRGLFYSMAKDAGLV
Consider B1, for which the values for the Michaelis constant (Km) in data set [1] and in data set [2] were 43 µM and 1.2 µM, respectively.
